Test results: a protein production outcome set (Wang et al. 2014)

Experiment: label from the status in PepcDB records

**Q.** For “MEKKYIMFIIAMAISFLTTPIVRKFAKHIKAIDIPKDKRRVHKKPIPKIGGLAIYLAFVLVLVLKKGHLEKAEMGIIFGGGIIVLGGFIDDLKCLRPLYKVLFQLLGAFVLIGFGLRISMVTNPLSNSFSYIHINNFIGIAITIIWIIGVTNAFNLIDGLDGLSAGVGFISSVTIAIVAFLNGPTRSEAEILSVILAGSILGFLPYNFNPASIFMGDTGAQFLGFALAAISIQGAIKSASAVVLAVPILVLGLPIYDTIFAIIRRKINGKPITQADRGHLHHRLLDMGLSQKQAVLIMYFISAIMGLVAVIAMQLTNTKAYVIFAGAVICIVGLAWKFGLFKHK”, which protein production is on record?
**A.** failed

**Q.** For “MEKLGAVLFDDPNLSMNRTMACSTCHMQAAGFSDARESEKVGRDVSLGDDGISLGDRNAPTAAYAKFTPPFGKNAAGEYIGGQFWDGRASLLEDQAGGPPLNPVEMGMPDKAAVVKRLRENPDYVAAFGTQFGKDVFASDESAYAAMTKALASFERSDEFSTFDSKYDRFLRGEEKLTDQEELGRVLISSTQFTNCNTCHEIRGAKGLEDGLFTNHKYFNIGVPANTSVRAVNGSKPDAVDLGLAQNPAVAGDPAQRGKFKVPTLRNVAVTGPYMHNGVFKDLRTVVLFYVKYKSKKPSRQINPETGKTWDAPEVPENIAMTELTSAPALDDKRVDAIVAFLKTLTDRRYEHLLPKEDGQTAAPTAQPVLSVTPKAP”, which protein production is on record?
**A.** failed

**Q.** For “MEKLTTLTGVAVPLRRSNVDTDQIIPAVFLKRVKKSGFDDALFYAWRRDPEFVLNKPEYKQGKILVAGPDFGIGSSREHAVWALHDYGFRVVISSRFADIFYGNTAKNGVLAAIMPQESIELLWKLLDEEPGREMTVSLEDRTVTCGDVTLPFEVNDYTRWRLMNGYDDIDLTLQHEDDIIAYEKMRAEKFPFKPKTLPVKREPEQPIESAREGEYPDWQGPLADRGII”, which protein production is on record?
**A.** failed

**Q.** With “MEKMYNVGKIVNTHGLIGEIRVIATTDFPEERFQVGNTVYLFEKNSKKPEKLIIRSHRKHKNFDLLMFEGLTGIHQVERMKEGVLKIKEAQLTDLEENEFYFHEIIGTVVTTDGEELGEITEILTPGANDVWVVKGADKKEKLIPYIADVVKDINTNDKKITIEVMEGLLDLEHHHHHH” as the sequence, how does the protein production read?
**A.** failed

**Q.** With “MEKNFILSVGMSVMFLFISSIKTVQAQQLGIGVKTELNGKVRFCNYDEAYFMPDTNTRIKVTGLEIAYDSSLNYYDIFVNVKGDKVNLHIKYSNGGEGAYIYKGIDRISKMDVVVTTKKKLSLYANNYGVNSYKEVESSVGIIIVFPKTYMISSIVPIKNKVETVNELSTQLRKGVITDSDGYTNIRKSNSVNSEIIGKIVDREVFTYWETNDNWYIVQTAKGIKGYVHKSRIKPVEERNEQKIRYYKVKNGDKIQDIAEKLGVSIDTICKLNRVKITTVLREGQALRISR” as the sequence, how does the protein production read?
**A.** failed

**Q.** For “MEKNQSDDDGTALIFLGTGCSGAVPDFRCLLQPSDPPCHVCSQSLSLLPHLNPNYRCNTSLLIDYCSKEEDGRHKYILIDVGKSFREQIILTHEHADAVHGLDEIRSLQPRGATIVDTDPLPVFLSQFTMESIATRFPYLVEKKVKEVPRRVSLLDWKNIEENCDEPFAASGLSFTPLPVMHGEDYIALGFLFGDKSKVAYISDVSRIPPSTEYAISKAGAGQLDLLILDTNIPWKRGPHPTHICFTEALEILKRLCPKRALLTGMTHEFDHHEYNEILAEWSLRDYVDF”, which protein production is on record?
**A.** failed

**Q.** For “MEKPDINVAEAWEQYWNKTLVNATPVLWDANVERAVVVDLPRFQSFFDTELPLIDFACGNGTQTKFLSQFFPRVIGFDVSKTALEMASKENTAANISYRLLDGLVPEQAAQIHSEIGDANIYMRTGFHHIPVEKRELLAQSLRTLLGKQGVMYLIELGTGCIEFFNSLLEKYGKLPYELSLVMEHGIRPGIFTTEDIELYFPDFEILSQGESLFQSIHKLPDGNYATPPAFWAVIKRHLEHHHHHH”, which protein production is on record?
**A.** not failed

**Q.** Which protein production does the source give for “MEKPGGFWIPKKSNKESSWEELAFAEDDAAGSLWPPRSYTCSFCRREFKSAQALGGHMNVHRRDRARLKQADDQYLFPKSSSSPEYPSHKDSDNIHETSCYTLVFNTKPNYFKTQHSCVIDLSSSSSLPYLTPSRVSSGLPGKQHTSSSPPSFVVEPSKNSKYIPSSSPWSCPSTVVEQKSCDLYEIPAMEGEKKRKTESDVPKIGHKAKLSLGNTTDLSVSMNLVIHQSFPITAHGSDEEIGRVDIRKRRRRHESPSQQSIFISSLSCKSDIITRNEESKHKGDRFEDLDLELRLGTDPPKGI” here?
**A.** failed

**Q.** For “MEKQNLKNTEVNLIYGVDDDLDLPKKVLFGLQHIFAAFGGIIVVPLVIATSLGFDSKVTTALISASILGSGLATIIQAKGVGKVGARVACIMGTDFTFVSPAISVGSVLGLPGIIGATILGSLFEVILSFFIKPLMKFFPPLVTGTVVALIGLTLLPVSIDWAAGGAGSANYASLENLAVAMFVLVITLLLNNYGKGMISSASILIGIVVGYIVCIPLGLVDFTPVKEASWLSFPKILEFGVTFDAKAVMAFIPAYFVATIGTVGCLKAIGETSNIDIGDKRVAAGVLSDGVGSALGGLVGSCPNTSFSQNIGIISLTKVASRHVAVMAGILLVILGFLPKVAAIITGIPNPVLGGVGIMMFGTVAAAGIRTLSNIKLTERNLLIIAISMGLGLGVTFRPDVIHNLPEAIRMIFSSGISTGTIAALILNAVLKESPTSMEFENMYDEETKAS”, which protein production is on record?
**A.** failed

**Q.** With “MEKTIIAALLMLISLISYAQGLMWTAKAELNMSSMSNVEESKMHPGFYAGIGAGYVIDETRSVRPSLLFTMKGVKQDYKF” as the sequence, how does the protein production read?
**A.** failed

**Q.** For “MEKVTKMISRMMVRVVTVAFALSLVAVACHEAEARAGGGRSFGSRGTRTYRPPTRTVDPAPASRPQPAPAVPQTFPQQRQGGSFLRSMAGGIVGGLLGGMLFRSLGFAGPGAGGVGLFDILLIGGILYLVYRFVASRRREAAATAGRAPDWSREEPVTPQQYRYGQPAESVPAAGADSGLAHVRQMDGSFSEEQFRQLAQDVFFRVQGAWTRRDLSSAREVLAPEMERALQGDVAELKARGQVNRLENIAVRQVELVEAWQEEGCDFITVRFLANLLDYTTDEEGRVLSGSDREPVKFEEFWTFTRPVGPNPWKLSAIQQA”, which protein production is on record?
**A.** failed

**Q.** For “MEKYIHSVEDYHRLISYLENNLNYEDSVVNHVIYVIAKTGMRYGEIIGLTNNDTSLDEHYLHTYKRYNTSTWKWTNAKNESSKRYIPIDDKIVAALSNMIKERERINSLLRIKNKEEFLFFHYGLEHGIPSVATVNKALKKILKKLDIEPIITTKGLRHTYGSYLLHNNIDMGVVARILGHKDIQMLIQVYGHTLTEKIDKEFKEVEQIMNRILEHHHHHH”, which protein production is on record?
**A.** failed

**Q.** With “MELDDAYANGAYIEGAADYPPRWAASAEDFRNSLQDRARLNLSYGEGDRHKFDLFLPEGTPVGLFVFVHGGYWMAFDKSSWSHLAVGALSKGWAVAMPSYELCPEVRISEITQQISQAVTAAAKEIDGPIVLAGHSAGGHLVARMLDPEVLPEAVGARIRNVVPISPLSDLRPLLRTSMNEKFKMDADAAIAESPVEMQNRYDAKVTVWVGGAERPAFLDQAIWLVEAWDADHVIAFEKHHFNVIEPLADPESDLVAVITA” as the sequence, how does the protein production read?
**A.** not failed

**Q.** Which protein production does the source give for “MELELDDDVFFADISKQLNLLITDEDEQNPISLSSSVSFQGLFRGNYQTSATPYMMYNEQINYNVIRESKGTGVFIPRSSQPRRKHNHHPHQKKQGRFIGSFIPKQQFPHHGHDNNLTTLNNNNQESITFHHASTNPRRTYRDAASLFT” here?
**A.** failed

**Q.** For “MELFTEAWAQAYCRKLNESEAYRKAASTWEGSLALAVRPDPKAGFPKGVAVVLDLWHGACRGAKAVEGEAEADFVIEADLATWQEVLEGRLEPLSALMRGLLELKKGTIAALAPYAQAAQELVKVAREVA”, which protein production is on record?
**A.** not failed

**Q.** For “MELIEVQEGKAKILIPKAESIYDSPVFYNPRMALNRDIVVVLLNILNPKIVLDALSATGIRGIRFALETPAEEVWLNDISEDAYELMKRNVMLNFDGELRESKGRAILKGEKTIVINHDDANRLMAERHRYFHFIDLDPFGSPMEFLDTALRSAKRRGILGVTATDGAPLCGAHPRACLRKYLAVPLRGELCHEVGTRILVGVIARYAAKYDLGIDVILAYYKDHYFRAFVKLKDGARKGDETLEKLGYIYFDDKTGKFELEQGFLPTRPNAYGPVWLGPLKDEKIVSKMVKEAESLSLARKKQALKLLKMIDQELDIPLFYDTHAIGRRLKIETKKVEEIISALREQGYEATRTHFSPTGIKTSAPYEVFIETIKRI”, which protein production is on record?
**A.** not failed

**Q.** For “MELIRFSISIPSKLLEKFDQIIEEIGYENRSEAIRDLIRDFIIRHEWEVGNEEVAGTITIVYNHDEGDVVKALLDLQHEYLDEIISSLHVHMDEHNCLEVIVVKGEAKKIKMIADKLLSLKGVKHGKLVMTSTGKELV”, which protein production is on record?
**A.** not failed

**Q.** For “MELKMKTRALVIGLGSMGKRRVRNLLALGNIDVFGFDVRADRNEEASSKYQITTFDDVQKAFEDVKPEVVVISTPPQLHMTYANMCFDARVPCFIEASVTDIEEIRELGKKALEASLVIAPSCTMRYFPGPKKVKELLEQNVIGSPLSVNYQTGQYLPDWHPWEDIQDFYVSKRESGGAREIVPFELTWLNDLFSHDVKALASAVAKQTDMNADIDDIYHCLLQYDSGVLLNLTVEVISRPLATREMLILGSKGKIKFSADSNSVSYCNLETDGWVESTWEEGTVESQYINPEEPYINEMKDFVTAALAGDQSLFPNNLQDDVKVLEVLEALEEVDQLKGNKA”, which protein production is on record?
**A.** failed

**Q.** Which protein production does the source give for “MELLLGIVIVVTCWMVVRIIRSSKNQEGYKRWRAGNYASENPYAKEKASGPLSQGLFSKRVRTTGVRRFDDGAIRWCANLLATEESRLREVLDYIPRQYTCFHVRKRSGGFRYISAPAGDFRSMQQTIYHRILLLANIHPAVTGFCPGKSVSDNARVHLGRKNVLKVDLHDFFPSIRSPRVRAAFREMGYSRPIAKVLAELCCLRCCLPQGAPTSPALSNIIAYPMDKKMMALAGEYGLVYTRYADDLTFSGDYLPKDEVLVRIHRIIREEGFTMNVKKTRFLSEHKRKIITGVSVSSGKKMTLPKVKKREIRKNVHYVLTKGLVGHQEHIGSTDPVYLKRLLGSLCYWRSIEPDNRYVSDSITALKRLM” here?
**A.** failed

**Q.** With “MELNISESRSRSIRCIVKLGGAAITCKNELEKIHDENLEVVACQLRQAMLEGSAPSKVIGMDWSKRPGSSEISCDVDDIGDQKSSEFSKFVVVHGAGSFGHFQASRSGVHKGGLEKPIVKAGFVATRISVTNLNLEIVRALAREGIPTIGMSPFSCGWSTSKRDVASADLATVAKTIDSGFVPVLHGDAVLDNILGCTILSGDVIIRHLADHLKPEYVVFLTDVLGVYDRPPSPSEPDAVLLKEIAVGEDGSWKVVNPLLEHTDKKVDYSVAAHDTTGGMETKISEAAMIAKLGVDVYIVKAATTHSQRALNGDLRDSVPEDWLGTIIRFSK” as the sequence, how does the protein production read?
**A.** failed

**Q.** With “MELPAVGEHVFAVESIEKKRIRKGRVEYLVKWRGWSPKYNTWEPEENILDPRLLIAFQNRERQEQLMGYRKRGPKPKPLVVQVPTFARRSNVLTGLQDSSTDNRAKLDLGAQGKGQGHQYELNSKKHHQYQPHSKERAGKPPPPGKSGKYYYQLNSKKHHPYQPDPKMYDLQYQGGHKEAPSPTCPDLGAKSHPPDKWAQGAGAKGYLGAVKPLAGAAGAPGKGSEKGPPNGMMPAPKEAVTGNGIGGKMKIVKNKNKNGRIVIVMSKYMENGMQAVKIKSGEVAEGEARSPSHKKRAADERHPPADRTFKKAAGAEEKKVEAPPKRREEEVSGVSDPQPQDAGSRKLSPTKEAFGEQPLQLTTKPDLLAWDPARNTHPPSHHPHPHPHHHHHHHHHHHHAVGLNLSHVRKRCLSETHGEREPCKKRLTARSISTPTCLGGSPAAERPADLPPAAALPQPEVILLDSDLDEPIDLRCVKTRSEAGEPPSSLQVKPETPASAAVAVAAAAAPTTTAEKPPAEAQDEPAESLSEFKPFFGNIIITDVTANCLTVTFKEYVTV” as the sequence, how does the protein production read?
**A.** failed

**Q.** Which protein production does the source give for “MELREVAAVSGRGGLFKILKPTKNGVILEAIDPSKKRFVAGANERVSILNEISIYTTDKDGSVPLESVLHKIHAKYGADTKITGKSSNDELGNFLSSILPEYDREKVYHSDIKKLANWYAILQANFPELLVAKKEAAPKTEAKPAEAKEEKVKAVKEEKAEAPAPAAKKAAAKKVKEVSEEATEKPAAKKAAAKKTAKAKGE” here?
**A.** failed
